Results from article PMC4454046, “Aptamer-based Sandwich Assay and its Clinical Outlooks for Detecting Lipocalin-2 in Hepatocellular Carcinoma (HCC)”.

B1: LCN2_apta1 (ssDNA)
DNA: ATACCAGCTTATTCAATTGCCACGACTTGGGGAATCCTAAGGGCTGTGAACGCCGTGGAGATAGTAAGTGCAATCT
B2: LCN2_apta2 (ssDNA)
DNA: ATACCAGCTTATTCAATTCCACAGTAGGTGAGGTTCACTGAGTTATCCATTGTTGGCAAGATAGTAAGTGCAATCT
B3: LCN2_apta19 (ssDNA)
DNA: ATACCAGCTTATTCAATTCGACAAAGGAGCTACGTCTACATAGCGTGGTGAGTGCTTGAGATAGTAAGTGCAATCT
B4: LCN2_apta12 (ssDNA)
DNA: ATACCAGCTTATTCAATTCAGGGAAAGGTTACGCGACACATTAGTTTTGAGTCCGTTCAGATAGTAAGTGCAATCT
B5: LCN2_apta30 (ssDNA)
DNA: ATACCAGCTTATTCAATTGCACGGGTAAGAAAACGGGGAACTTGAAAGTAGTGCTGTGAGATAGTAAGTGCAATCT
B6: LCN2_apta10 (ssDNA)
DNA: ATACCAGCTTATTCAATTGGCAGTAGGGCGGGGGGGAGCATGGAGCACATTCTTGTCGAGATAGTAAGTGCAATCT
B7: LCN2_apta26 (ssDNA)
DNA: ATACCAGCTTATTCAATTCCAACACCTTGGGTATCCTGTTATATTCACTTGTTGAGTAAGATAGTAAGTGCAATCT
B8: LCN2_apta23 (ssDNA)
DNA: ATACCAGCTTATTCAATTCGTATCAGAATCGCGTGTCACCTTATCTGCCGTATGGGTGAGATAGTAAGTGCAATCT
B9: LCN2_apta16 (ssDNA)
DNA: ATACCAGCTTATTCAATTCCGCGTCACCTCACTGCTCCCACCTGCGTTGCGTCTCTAAGATAGTAAGTGCAATCT
B10: LCN2_apta29 (ssDNA)
DNA: ATACCAGCTTATTCAATTCCGTGACAAGTTGCAGGGGCTGTGCGGTTCTTTTTTTTTGAGATAGTAAGTGCAATCT
B11: LCN2_apta21 (ssDNA)
DNA: ATACCAGCTTATTCAATTCCGGATTTTCGCACGGCTAGCGGGGAACCACTGTCTGGGAGATAGTAAGTGCAATCT
B12: LCN2_apta31 (ssDNA)
DNA: ATACCAGCTTATTCAATTCCCGATCAGAACATCGGCTCTTATACCCGTTTTGGTCACGAGATAGTAAGTGCAATCT
B13: LCN2_apta3 (ssDNA)
DNA: ATACCAGCTTATTCAATTCCCAAGGGCGAGCTGGCGGCTTGTTGCATAAATTCGTGGAGATAGTAAGTGCAATCT
B14: LCN2_apta34 (ssDNA)
DNA: ATACCAGCTTATTCAATTCGGAGCGGTAGTTTGAGGAGGAAACAACCCGGCCTTGGAGAGATAGTAAGTGCAATCT
B15: LCN2_apta18 (ssDNA)
DNA: ATACCAGCTTATTCAATTCCAGCAAGTAAAGGTTATTTACTAGTTAGGGGCTTCTTGAGATAGTAAGTGCAATCT
B16: LCN2_apta22 (ssDNA)
DNA: ATACCAGCTTATTCAATTCCAACGAGGATGCCAAAGAAAGGTGAGGTGGTCCTAAGGGAGATAGTAAGTGCAATCT
B17: LCN2_apta11 (ssDNA)
DNA: ATACCAGCTTATTCAATTGCGATCGACGCCTGGAGAAGTTCCAGCATTAGCGTAAGTGAGATAGTAAGTGCAATCT
B18: LCN2_apta13 (ssDNA)
DNA: ATACCAGCTTATTCAATTCGCGGCCTAACTTTGGAAGTTCCTCAGAATACTCAGTTGAGATAGTAAGTGCAATCT
B19: LCN2_apta15 (ssDNA)
DNA: ATACCAGCTTATTCAATTCCACACCAGTCCTTGTTCGTAGATCACGGTTTCTTCAGGAAGATAGTAAGTGCAATCT
B20: LCN2_apta17 (ssDNA)
DNA: ATACCAGCTTATTCAATTCACGTGCGACAGGGGGATCTGGCTTTATCCCAGCGTGTTAAGATAGTAAGTGCAATCT
B21: LCN2_apta24 (ssDNA)
DNA: ATACCAGCTTATTCAATTGGGGAACTGAATTATCAGAGATTTTATTCACCTCGTTGGGAGATAGTAAGTGCAATCT
B22: LCN2_apta25 (ssDNA)
DNA: ATACCAGCTTATTCAATTGCCACTCGACATGCTTGCCTGTACACTAAAACACTATTCAGATAGTAAGTGCAATCT
B23: LCN2_apta32 (ssDNA)
DNA: ATACCAGCTTATTCAATTCGAGTCATTGTTTTGCAAAGGATTATGCGTTGTAACGGAGAGATAGTAAGTGCAATCT
B24: LCN2_apta4 (ssDNA)
DNA: ATACCAGCTTATTCAATTCGGAGGGCGGAAGCAAAGCGTAACAGAAAGCCAACACGCGAGATAGTAAGTGCAATCT
B25: LCN2_apta33 (ssDNA)
DNA: ATACCAGCTTATTCAATTCACGACGATAGTGCAGTGGATACATTCGGCCCTTACCATGAGATAGTAAGTGCAATCT
B26: LCN2_apta5 (ssDNA)
DNA: ATACCAGCTTATTCAATTCCCAGCAATCCATTACTTCGTTAGTTCTAATTACCAACCAGATAGTAAGTGCAATCT
B27: LCN2_apta6 (ssDNA)
DNA: ATACCAGCTTATTCAATTGCACGGTACGCTCTTGAGTGATCCACAATTTCTAACCGCGAGATAGTAAGTGCAATCT
B28: LCN2_apta7 (ssDNA)
DNA: ATACCAGCTTATTCAATTCCGCGTCACCTCACTGCTCCCACTGCGTTGCGTCTCTAAGATAGTAAGTGCAATCT
B29: LCN2_apta8 (ssDNA)
DNA: ATACCAGCTTATTCAATTCGACAATAGATCAGAACGCTCGAGTTCGCGAGGTGGGGGAGATAGTAAGTGCAATCT
B30: LCN2_apta20 (ssDNA)
DNA: ATACCAGCTTATTCAATTCCACAAACGGTACTGGACAGTTCTTATATGCTTACATTTGAGATAGTAAGTGCAATCT
B31: LCN2_apta27 (ssDNA)
DNA: ATACCAGCTTATTCAATTGCGATAATCTTGGTTTTCTTTTCAGTTTCTTTAGGGCGGGAGATAGTAAGTGCAATCT

target: Lipocalin-2 (LCN2, NGAL) (human, UniProt P80188 21-198); experiment: SPR (BIAcore 3000, CM5 chip); SPR BIAcore 3000, 24 C, LCN2 amine-coupled to CM5 chip; running buffer for the Kd assay not stated (HBS-EP used for SA-chip activation); conditions: protein: recombinant; tags: C-terminal polyhistidine
Sequence (P80188 21-198): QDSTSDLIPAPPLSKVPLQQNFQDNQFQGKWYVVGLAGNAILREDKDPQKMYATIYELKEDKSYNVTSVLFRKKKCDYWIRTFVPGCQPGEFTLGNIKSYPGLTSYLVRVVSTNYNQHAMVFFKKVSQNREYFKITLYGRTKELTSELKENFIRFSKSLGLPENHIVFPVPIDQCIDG

Going from B1 to B2, the Kd rises from 0.000647 nM to 0.00224 nM (3.5-fold). The first binds more tightly here.

B3 and B4 are within 1.5-fold of each other in Kd: 66.6 nM for the first, 84.5 nM for the second.

B5 and B6 are within 1.5-fold of each other in Kd: 86.4 nM for the first, 99.9 nM for the second.

B7 and B8 are within 1.5-fold of each other in Kd: 118 nM for the first, 158 nM for the second.

First: B9
Second: B10
The Kd of the first is 2.6-fold lower: 220 nM for the first, 565 nM for the second. The first binds more tightly here.

Compared with B11, B12 is 2-fold higher in Kd: 872 nM for the first, 1780 nM for the second.

Going from B13 to B14, the Kd rises from 0.00719 nM to 2870 nM. The first binds more tightly here.

Going from B15 to B16, the Kd rises from 3380 nM to 8440 nM (2.5-fold). The first binds more tightly here.

B24 and B26 are within 1.5-fold of each other in Kd: 0.0609 nM for the first, 0.0816 nM for the second.

B27 and B28 are within 1.5-fold of each other in Kd: 0.801 nM for the first, 1.1 nM for the second.

First: B29
Second: B30
The Kd of the first is 3.2-fold lower: 3.42 nM for the first, 10.9 nM for the second. The first binds more tightly here.

Work on B31 yielded a Kd of 13.9 nM.

B17: no binding.
B18: no binding.
B19: no binding.
B20: no binding.
B21: no binding.
B22: no binding.
B23: no binding.
B25: no binding.
